The labels stand for the following.
B4: αB-crystallin core domain (αBDom) 68-153 (protein)
chain: MRLEKDRFSVNLDVKHFSPEELKVKVLGDVIEVHGKHEERQDEHGFISREFHRKYRIPADVDPLTITSSLSSDGVLTVNGPRKQVS

What all share (assay): ion-mobility native mass spectrometry titration
For series [1], the target named is T1, αBExt C-terminal peptide, second binding (Homo sapiens, not fully specified; dimer with one αBExt peptide already bound).
T1 chain: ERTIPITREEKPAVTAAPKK

Series [2] concerns the target T2, αBPal C-terminal peptide, second binding (Homo sapiens, not fully specified).
T2 chain: ERTIPITRE

In series [3] the target is B4.
Series [4] concerns the target T3, αBExt C-terminal peptide, first binding (Homo sapiens).
T3 chain: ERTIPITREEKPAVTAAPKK

Series [5] concerns the target T4, αBPal C-terminal peptide, first binding (Homo sapiens).
T4 chain: ERTIPITRE

Series [6] concerns the molecule itself.

Where no end group is shown, it is not given here.

B1: αB-crystallin core domain (αBDom) dimer 68-153 (protein)
chain: MRLEKDRFSVNLDVKHFSPEELKVKVLGDVIEVHGKHEERQDEHGFISREFHRKYRIPADVDPLTITSSLSSDGVLTVNGPRKQVS
In the case of B1, the values for the dissociation constant (Kd) in series [1] and in series [2] were 300 µM and 150 µM, respectively.

B2: αB-crystallin core domain (αBDom) 68-153 (protein)
chain: MRLEKDRFSVNLDVKHFSPEELKVKVLGDVIEVHGKHEERQDEHGFISREFHRKYRIPADVDPLTITSSLSSDGVLTVNGPRKQVS
modifications: both subunits bound to αBPal peptide
Consider B2, for which, in series [3], the dissociation constant (Kd) turned out to be 4 µM.

B3: αB-crystallin core domain (αBDom) 68-153 (protein)
chain: MRLEKDRFSVNLDVKHFSPEELKVKVLGDVIEVHGKHEERQDEHGFISREFHRKYRIPADVDPLTITSSLSSDGVLTVNGPRKQVS
modifications: both subunits bound to αBExt peptide
In series [3], B3 returned a dissociation constant Kd of 6 µM.
On to B4, for which the values for the Kd in series [4], in series [5] and in series [6] were around 70 µM, around 70 µM and around 2 µM, respectively.

As a reminder, the Kd is the concentration at which binding is half-saturated. Low values mean a tighter complex, high ones a looser complex.

The record behind these values is PMC3638394 (2013).
